Test results published in the supplement of paper PMC11780869.

Test system: Bacillus subtilis
Assay: cleaved RNA product abundance (RNA/gDNA barcode ratio) relative to median wild-type variant (ratio to wild type); higher = more accumulation of the downstream cleavage product
Conditions: experiment (reporter, strain, medium): exp 8a: truncated aprE reporter, strain BJT201 with 2% xylose (RNase J1 expressed); cleavage site: glnRA (positions -5 to +31 mutated)
Outline: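 Reporter mRNAs based on truncated aprE or tetM carried barcoded, mutagenized RNase Y cleavage-site windows built from oligos with a 9% error rate and were integrated into the B. subtilis chromosome. Cultures grew in LB at 37°C from OD600 0.0003 to 0.3. Cleaved RNA was gel-selected, reverse transcribed and barcode-sequenced together with genomic DNA barcodes, and UMIs were collapsed. Cleaved product abundance is the per-construct ratio of RNA to gDNA barcodes, scaled to the median of constructs carrying the unmutated site.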

| Sequence | cleaved RNA product abundance |
| --- | --- |
| CGACATGTCCCGCTTCTTTCATTAATCCATTAGCAACTGTTTTTCTATATACATTTACCTTTTAAGAGGAGGAAT | 0.319 |
| CGACATGTCCCGCTTCTTTCATTAATCCATTAGCAACTTTTTTGCTATATACATTTACCTTTTAAGAGGAGGAAT | 0.569 |
| CGACATGTCCCGCTTCTTTCATTAATCCATTAGCAATTGTTTTGCTATATACATTTACCTTTTAAGAGGAGGAAT | 0.776 |
| CGACATGTCCCGCTTCTTTCATTAATCCATTAGCAGCTGTTTTGCTATATACATTTACCTTTTAAGAGGAGGAAT | 0.324 |
| CGACATGTCCCGCTTCTTTCATTAATCCATTAGCCACTGTTTTGCTATATACATTTACCTTTTAAGAGGAGGAAT | 0.271 |
| CGACATGTCCCGCTTCTTTCATTAATCCATTATCAACTGTTTTGCTATATACATTTACCTTTTAAGAGGAGGAAT | 0.224 |
| CGACATGTCCCGCTTCTTTCATTAATCCATTATCAACTTTTTTGCTATATACATTTACCTTTTAAGAGGAGGAAT | 0.311 |
| CGACATGTCCCGCTTCTTTCATTAATCCATTTGCAACTGTTTTGCTATATACATTTACCTTTTAAGAGGAGGAAT | 0.236 |
| CGACATGTCCCGCTTCTTTCATTAATCCCGTTAGCAACTGTTTTGCTATATACATTTACCTTTTAAGAGGAGGAA | 1.01 |
| CGACATGTCCCGCTTCTTTCATTAATCCCTAAGCAACTGTTTTGCTATATACATTTACCTTTTAAGAGGAGGAAT | 0.229 |
| CGACATGTCCCGCTTCTTTCATTAATCCCTTAACAACTGTATTGCTATATACATTTACCTTTTAAGAGGAGGAAT | 0.142 |
| CGACATGTCCCGCTTCTTTCATTAATCCCTTACCAACTGTTTTGCTATATACATTTACCTTTTAAGAGGAGGAAT | 0.187 |
| CGACATGTCCCGCTTCTTTCATTAATCCCTTAGAAACTGTTTTGCTATATACATTTACCTTTTAAGAGGAGGAAT | 0.173 |
| CGACATGTCCCGCTTCTTTCATTAATCCCTTAGCAACTATTTTGCTATATACATTTACCTTTTAAGAGGAGGAAT | 0.323 |
| CGACATGTCCCGCTTCTTTCATTAATCCCTTAGCAACTCTTTTGCTATATACATTTACCTTTTAAGAGGAGGAAT | 0.0915 |
| CGACATGTCCCGCTTCTTTCATTAATCCCTTAGCAACTGATTTGCTATATACATTTACCTTTTAAGAGGAGGAAT | 0.25 |
| CGACATGTCCCGCTTCTTTCATTAATCCCTTAGCAACTGTTTAGCTATATACATTTACCTTTTAAGAGGAGGAAT | 0.236 |
| CGACATGTCCCGCTTCTTTCATTAATCCCTTAGCAACTGTTTGGCTATATACATTTACCTTTTAAGAGGAGGAAT | 0.204 |
| CGACATGTCCCGCTTCTTTCATTAATCCCTTAGCAACTGTTTTACTATATACATTTACCTTTTAAGAGGAGGAAT | 0.0875 |
| CGACATGTCCCGCTTCTTTCATTAATCCCTTAGCAACTGTTTTCCTATATACATTTACCTTTTAAGAGGAGGAAT | 0.214 |
| CGACATGTCCCGCTTCTTTCATTAATCCCTTAGCAACTGTTTTGATATATACATTTAACTTTTAAGAGGAGGAAT | 0.245 |
| CGACATGTCCCGCTTCTTTCATTAATCCCTTAGCAACTGTTTTGCTAAATACATTTACCTTTTAAGAGGAGGAAT | 0.149 |

| Sequence | cleaved RNA product abundance |
| --- | --- |
| CGACATGTCCCGCTTCTTTCATTAATCCCTTAGCAACTGTTTTGCTAGATACATTTACCTTTTAAGAGGAGGAAT | 0.127 |
| CGACATGTCCCGCTTCTTTCATTAATCCCTTAGCAACTGTTTTGCTATATACAATTACCTTTTAAGAGGAGGAAT | 0.305 |
| CGACATGTCCCGCTTCTTTCATTAATCCCTTAGCAACTGTTTTGCTATATACACTTAACTTTTAAGAGGAGGAAT | 0.255 |
| CGACATGTCCCGCTTCTTTCATTAATCCCTTAGCAACTGTTTTGCTATATACATATACCTTTTAAGAGGAGGAAT | 0.267 |
| CGACATGTCCCGCTTCTTTCATTAATCCCTTAGCAACTGTTTTGCTATATACATTTAACTTTTAAGAGGAGGAAT | 0.237 |
| CGACATGTCCCGCTTCTTTCATTAATCCCTTAGCAACTGTTTTGCTATATACATTTACATTTTAAGAGGAGGAAT | 0.242 |
| CGACATGTCCCGCTTCTTTCATTAATCCCTTAGCAACTGTTTTGCTATATACATTTACCTTTTAAGAGGAGGAAT | 0.213 |
| CGACATGTCCCGCTTCTTTCATTAATCCCTTAGCAACTGTTTTGCTATATACATTTACTTTTTAAGAGGAGGAAT | 0.19 |
| CGACATGTCCCGCTTCTTTCATTAATCCCTTAGCAACTGTTTTGCTATATACTTTTACCTTTTAAGAGGAGGAAT | 0.166 |
| CGACATGTCCCGCTTCTTTCATTAATCCCTTAGCAACTGTTTTGCTATATAGATTTACCTTTTAAGAGGAGGAAT | 0.355 |
| CGACATGTCCCGCTTCTTTCATTAATCCCTTAGCAACTGTTTTGCTATATATATTTACCTTTTAAGAGGAGGAAT | 0.163 |
| CGACATGTCCCGCTTCTTTCATTAATCCCTTAGCAACTGTTTTGCTATATTCATTTACCTTTTAAGAGGAGGAAT | 0.153 |
| CGACATGTCCCGCTTCTTTCATTAATCCCTTAGCAACTGTTTTGCTGTATACATTTACCTTTTAAGAGGAGGAAT | 0.108 |
| CGACATGTCCCGCTTCTTTCATTAATCCCTTAGCAACTGTTTTTCTATATACATTTACCTTTTAAGAGGAGGAAT | 0.163 |
| CGACATGTCCCGCTTCTTTCATTAATCCCTTATCAACTGTTTTGCTATATACATTTACCTTTTAAGAGGAGGAAT | 0.249 |
| CGACATGTCCCGCTTCTTTCATTAATCCGAAAGCAACTGTTTTGCTATATACATTTACCTTTTAAGAGGAGGAAT | 0.39 |
| CGACATGTCCCGCTTCTTTCATTAATCCGACAGCAACTGTTTTGCTATATACATTTACCTTTTAAGAGGAGGAAT | 0.335 |
| CGACATGTCCCGCTTCTTTCATTAATCCGATAACAACTGTTTTGCTATATACATTTACCTTTTAAGAGGAGGAAT | 0.201 |
| CGACATGTCCCGCTTCTTTCATTAATCCGATACCAACTGTTTTGCTATATACATTTACCTTTTAAGAGGAGGAAT | 0.304 |
| CGACATGTCCCGCTTCTTTCATTAATCCGATAGAAACTGTTTTGCTATATACATTTACCTTTTAAGAGGAGGAAT | 0.302 |
| CGACATGTCCCGCTTCTTTCATTAATCCGATAGCAAATGTTTTGCTATATACATTTACCTTTTAAGAGGAGGAAT | 0.41 |
| CGACATGTCCCGCTTCTTTCATTAATCCGATAGCAACTCTTTTGCTATATACATTTACCTTTTAAGAGGAGGAAT | 0.19 |

| Sequence | cleaved RNA product abundance |
| --- | --- |
| CGACATGTCCCGCTTCTTTCATTAATCCGATAGCAACTGCTTTGCTATATACATTTACCTTTTAAGAGGAGGAAT | 0.492 |
| CGACATGTCCCGCTTCTTTCATTAATCCGATAGCAACTGTTTAGCTATATACATTTACCTTTTAAGAGGAGGAAT | 0.822 |
| CGACATGTCCCGCTTCTTTCATTAATCCGATAGCAACTGTTTTACTATATACATTTACCTTTTAAGAGGAGGAAT | 0.459 |
| CGACATGTCCCGCTTCTTTCATTAATCCGATAGCAACTGTTTTCCTATATAAGCTTACCTTTTAAGAGGAGGAAT | 0.295 |
| CGACATGTCCCGCTTCTTTCATTAATCCGATAGCAACTGTTTTGATATATACATTTACCTTTTAAGAGGAGGAAT | 0.325 |
| CGACATGTCCCGCTTCTTTCATTAATCCGATAGCAACTGTTTTGCTAGATACATTTACCTTTTAAGAGGAGGAAT | 0.354 |
| CGACATGTCCCGCTTCTTTCATTAATCCGATAGCAACTGTTTTGCTATATACATCTACCTTTTAAGAGGAGGAAT | 0.88 |
| CGACATGTCCCGCTTCTTTCATTAATCCGATAGCAACTGTTTTGCTATATACATTGACCTTTTAAGAGGAGGAAT | 0.721 |
| CGACATGTCCCGCTTCTTTCATTAATCCGATAGCAACTGTTTTGCTATATACATTTAACTTTTAAGAGGAGGAAT | 0.63 |
| CGACATGTCCCGCTTCTTTCATTAATCCGATAGCAACTGTTTTGCTATATACATTTACCTTTTAAGAGGAGGAAT | 0.795 |
| CGACATGTCCCGCTTCTTTCATTAATCCGATAGCAACTGTTTTGCTATATACATTTACTTTTTAAGAGGAGGAAT | 0.547 |
| CGACATGTCCCGCTTCTTTCATTAATCCGATAGCAACTGTTTTGCTATATAGATTTACCTTTTAAGAGGAGGAAT | 1.02 |
| CGACATGTCCCGCTTCTTTCATTAATCCGATAGCAACTGTTTTGCTATTTACATTTACCTTTTAAGAGGAGGAAT | 0.189 |
| CGACATGTCCCGCTTCTTTCATTAATCCGATAGCAACTGTTTTGTTATATACATTTACCTTTTAAGAGGAGGAAT | 0.378 |
| CGACATGTCCCGCTTCTTTCATTAATCCGATAGCAACTGTTTTTCTATATACATTTACCTTTTAAGAGGAGGAAT | 0.413 |
| CGACATGTCCCGCTTCTTTCATTAATCCGATAGCAACTTTTTTGCTATATACATTTACCTTTTAAGAGGAGGAAT | 1.24 |
| CGACATGTCCCGCTTCTTTCATTAATCCGATATCAACTGTTTTGCTATATACATTTACCTTTTAAGAGGAGGAAT | 0.242 |
| CGACATGTCCCGCTTCTTTCATTAATCCGATCGCAACTGTTTTGCTAGATACATTTACCTTTTAAGAGGAGGAAT | 0.119 |
| CGACATGTCCCGCTTCTTTCATTAATCCGATGGCAACTGTTTTGCTATATACATTTACCTTTTAAGAGGAGGAAT | 0.74 |
| CGACATGTCCCGCTTCTTTCATTAATCCGATTGCAACTGTTTTGCTATATACATTTACCTTTTAAGAGGAGGAAT | 0.294 |
| CGACATGTCCCGCTTCTTTCATTAATCCGCAGGCAACTGTTTTTCTAAATACAAATACCTTTTAAGAGGAGGAAT | 0.213 |
| CGACATGTCCCGCTTCTTTCATTAATCCGCCAGCAACTGTTTTGCTATATAGATTTACCTTTTAAGAGGAGGAAT | 0.284 |
